{
  "source": "paper PMC9728394",
  "about": "“Molecular Docking and Kinetic Studies of the A226N Mutant of Deinococcus geothermalis Amylosucrase with Enhanced Transglucosylation Activity” (Journal of Microbiology and Biotechnology, 2020)",
  "key": {"[1]": {"system": "OC[C@H]1O[C@@](CO)(O[C@H]2O[C@H](CO)[C@@H](O)[C@H](O)[C@H]2O)[C@@H](O)[C@@H]1O", "test": "HPLC of 4-methylumbelliferone glucoside, initial velocities, Lineweaver-Burk fit", "type": "biochemical, Deinococcus geothermalis", "conditions": "donor, 0.4-200 mM, 1 mM 4-methylumbelliferone as acceptor, 50 mM Tris-HCl pH 8.0, 45°C", "text": "(§1) HPLC of 4-methylumbelliferone glucoside, initial velocities, Lineweaver-Burk fit on DgAS (WT DgAS)"}, "Cc1cc(=O)oc2cc(O)ccc12": {"system": "Cc1cc(=O)oc2cc(O)ccc12", "test": "HPLC of 4-methylumbelliferone glucoside, initial velocities, Lineweaver-Burk fit", "type": "biochemical, Deinococcus geothermalis", "conditions": "acceptor, 0.1-1.0 mM, 200 mM sucrose as donor, 50 mM Tris-HCl pH 8.0, 45°C", "text": "as §1"}},
  "data": [
    {"substance": "DgAS (WT DgAS) (Deinococcus geothermalis DSM 11300)", "values": [
      {"measurement": "Km", "setting": "[1]", "value": "36.174 ± 2.037", "unit": "mM"},
      {"measurement": "kcat", "setting": "[1]", "value": 0.1096, "unit": "s⁻¹"},
      {"measurement": "kcat/Km", "setting": "[1]", "value": 3.03, "unit": "M⁻¹ s⁻¹"}
    ]},
    {"substance": "DgAS (WT DgAS) (Deinococcus geothermalis DSM 11300; A226N)", "values": [
      {"measurement": "Km", "setting": "[1]", "value": "44.570 ± 4.625", "unit": "mM"},
      {"measurement": "kcat", "setting": "[1]", "value": 0.1139, "unit": "s⁻¹"},
      {"measurement": "kcat/Km", "setting": "[1]", "value": 2.55, "unit": "M⁻¹ s⁻¹"},
      {"measurement": "Km", "setting": "Cc1cc(=O)oc2cc(O)ccc12", "value": "2.718 ± 0.655", "unit": "mM"},
      {"measurement": "kcat", "setting": "Cc1cc(=O)oc2cc(O)ccc12", "value": 0.28778, "unit": "s⁻¹"},
      {"measurement": "kcat/Km", "setting": "Cc1cc(=O)oc2cc(O)ccc12", "value": 106, "unit": "M⁻¹ s⁻¹"}
    ]}
  ]
}
